Experimental data taken from patent US20110136724A1 (IPSEN PHARMA S A S, published 2011).
Primed or numbered codes have the meaning given here. Where no end group is shown, it is not given here. [ ]: non-standard residue; d: D form. The star is where a group is joined. Psu″ = N-propylsuccinimide on the Cys thiol (Cys(Psu)), CCCN1C(=O)CC(*)C1=O; Psu(3) = N-propylsuccinimide on Cys S, CCCN1C(=O)CC(*)C1=O; Hsu = N-hexylsuccinimide on Cys S, CCCCCCN1C(=O)CC(*)C1=O; Psu = N-propylsuccinimide (on the Cys sulfur); 2Nal = N[C@@H](Cc1ccc2ccccc2c1)C(=O)O; d2Nal = N[C@H](Cc1ccc2ccccc2c1)C(=O)O; Cyclohexanecarbonyl = O=C(C1CCCCC1)*; Myristoyl = CCCCCCCCCCCCCC(=O)*; Cys(Psu) = not defined here; Decanoyl = CCCCCCCCCC(=O)*; Ac6c = NC1(C(=O)O)CCCCC1; Nle = CCCC[C@H](N)C(=O)O; Orn = NCCC[C@H](N)C(=O)O; Hexanoyl = CCCCCC(=O)*; Aib = CC(C)(N)C(=O)O

T1: human recombinant GIP receptor (human, UniProt P48546 22-466)
T1 construct: whole, on cells; Assayed as washed membranes of CHO-K1 cells expressing the receptor; also called hGIP receptor
T1 sequence (looked up): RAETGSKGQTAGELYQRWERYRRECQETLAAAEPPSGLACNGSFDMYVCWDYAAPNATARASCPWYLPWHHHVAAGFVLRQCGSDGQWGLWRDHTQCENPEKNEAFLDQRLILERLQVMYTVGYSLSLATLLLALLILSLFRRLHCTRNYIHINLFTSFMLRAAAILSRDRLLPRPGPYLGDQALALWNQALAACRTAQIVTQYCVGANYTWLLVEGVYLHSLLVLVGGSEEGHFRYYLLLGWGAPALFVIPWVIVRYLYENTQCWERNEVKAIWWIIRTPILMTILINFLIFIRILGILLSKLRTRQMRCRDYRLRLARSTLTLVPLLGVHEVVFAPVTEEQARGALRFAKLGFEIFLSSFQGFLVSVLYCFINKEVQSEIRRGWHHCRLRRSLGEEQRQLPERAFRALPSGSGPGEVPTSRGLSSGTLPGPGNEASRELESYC

B1: [Ac-A6c^7, Orn^31(N-C(O)-(CH2)12-CH3)]hGIP(7-42)-OH (peptide)
peptide: Ac-[Ac6c]SDYSIAMDKIHQQDFVNWLLAQK[Orn](Myristoyl)KKNDWKHNITQ-OH
notes: Synthetic analogue of human GIP; also called [Ac-Ac6c^7, Orn(N-C(O)-(CH2)12-CH3)^31]hGIP(7-42)-OH
B2: (Ac-4Hyp^3, A6c^7)hGIP(3-42)-OH (peptide)
peptide: XGTFXSDYSIAMDKIHQQDFVNWLLAQKGKKNDWKHNITQ
modifications: N-terminal acetyl (Ac); 4Hyp (4-hydroxyproline) at 3; A6c at 7; hGIP numbering; C-terminal free acid
notes: Synthetic analogue of human GIP
B3: (Ac-A6c^7, Gln^43)hGIP(7-43)-OH (peptide)
peptide: XSDYSIAMDKIHQQDFVNWLLAQKGKKNDWKHNITQQ
modifications: N-terminal acetyl (Ac); A6c at 7; added Gln at 43; hGIP numbering; C-terminal free acid
notes: Synthetic analogue of human GIP with an added residue 43
B4: (Ac-A6c^7, Cys(Psu)^31]hGIP(7-34)-NH2 (peptide)
peptide: XSDYSIAMDKIHQQDFVNWLLAQKCKKN
modifications: N-terminal acetyl (Ac); A6c at 7; Cys(Psu) at 31; hGIP numbering; C-terminal amide
notes: as for B2
B5: [Ac-A6c^7, Cys(Psu)^31]hGIP(7-31)-NH2 (peptide)
peptide: XSDYSIAMDKIHQQDFVNWLLAQKC
modifications: N-terminal acetyl (Ac); A6c at 7; Cys(Psu) at 31; hGIP numbering; C-terminal amide
notes: as for B2
B6: [Ac-Phe^6, A6c^7, Cys(Psu)^31]hGIP(6-31)-NH2 (peptide)
peptide: FXSDYSIAMDKIHQQDFVNWLLAQKC
modifications: N-terminal acetyl (Ac) on Phe 6; A6c at 7; Cys(Psu) at 31; hGIP numbering; C-terminal amide
notes: as for B2
B7: (A5c^7, Nle^14)hGIP(6-30)-NH2 (peptide)
peptide: FXSDYSIAXDKIHQQDFVNWLLAQK
modifications: A5c (1-amino-1-cyclopentanecarboxylic acid) at 7; Nle (norleucine) at 14; hGIP numbering; C-terminal amide
notes: as for B2
B8: (4Hppa^2, 4Hyp^3, A6c^7)hGIP(2-42)-OH (peptide)
peptide: XXGTFXSDYSIAMDKIHQQDFVNWLLAQKGKKNDWKHNITQ
modifications: 4Hppa (3-(4-hydroxyphenyl)propionic acid) at 2; 4Hyp at 3; A6c at 7; hGIP numbering; C-terminal free acid
notes: as for B2

Biological target: T1, human recombinant GIP receptor
Experiment: radioligand competition, [125I]GIP on membranes of CHO-K1 cells expressing human GIP receptor

| Binder | Ki [nM] |
| --- | --- |
| Ac-[Ac6c]SDYSIAMDKIHQQDFVNWLLAQKC(Psu(3))KKNDWKHNITQ-OH (Synthetic analogue of human GIP) [[Ac-A6c^7, Cys(Psu)^31]hGIP(7-42)-OH] | 963 |
| Ac-[Ac6c]SDYSIAMDKIHQQDFVNWLLAQKGC(Psu)KNDWKHNITQ-OH (Synthetic analogue of human GIP) [[Ac-A6c^7, Cys(Psu)^32]hGIP(7-42)-OH] | 687 |
| Ac-[Ac6c]SDYSIAMDKIHQQDFVNWLLAQKGKC(Psu)NDWKHNITQ-OH (Synthetic analogue of human GIP) [[Ac-A6c^7, Cys(Psu)^33]hGIP(7-42)-OH] | 417 |
| Ac-[Ac6c]SDYSIAMDKIHQQDFVNWLLAQKGKKC(Psu)DWKHNITQ-OH (Synthetic analogue of human GIP) [[Ac-A6c^7, Cys(Psu)^34]hGIP(7-42)-OH] | 735 |
| Ac-[Ac6c]SDYSIAMDKIHQQDFVNWLLAQKGKKNC(Psu)WKHNITQ-OH (Synthetic analogue of human GIP) [[Ac-A6c^7, Cys(Psu)^35]hGIP(7-42)-OH] | 486 |
| Ac-[Ac6c]SDYSIAMDKIHQQDFVNWLLAQKGKKNDC(Psu)KHNITQ-OH (Synthetic analogue of human GIP) [[Ac-A6c^7, Cys(Psu)^36]hGIP(7-42)-OH] | 442 |
| Ac-[Ac6c]SDYSIAMDKIHQQDFVNWLLAQKGKKNDWC(Psu″)HNITQ-OH (Synthetic analogue of human GIP) [[Ac-A6c^7, Cys(Psu)^37]hGIP(7-42)-OH] | 127 |
| Ac-[Ac6c]SDYSIAMDKIHQQDFVNWLLAQKGKKNDWKC(Psu″)NITQ-OH (Synthetic analogue of human GIP) [[Ac-A6c^7, Cys(Psu)^38]hGIP(7-42)-OH] | 333 |
| Ac-[Ac6c]SDYSIAMDKIHQQDFVNWLLAQKGKKNDWKHC(Psu″)ITQ-OH (Synthetic analogue of human GIP) [[Ac-A6c^7, Cys(Psu)^39]hGIP(7-42)-OH] | 75.7 |
| Ac-[Ac6c]SDYSIAMDKIHQQDFVNWLLAQKGKKNDWKHNC(Psu″)TQ-OH (Synthetic analogue of human GIP) [[Ac-A6c^7, Cys(Psu)^40]hGIP(7-42)-OH] | 532 |
| B1 | 178 |
| [Ac6c]SDYSIAMDKIHQQDFVNWLLAQKGKK[Orn](Decanoyl)DWKHNITQ-OH (Synthetic analogue of human GIP) [[A6c^7, Orn^34(N-C(O)-(CH2)8-CH3)]hGIP(7-42)-OH] | 274 |
| Decanoyl-[Ac6c]SDYSIAMDKIHQQDFVNWLLAQKGKK[Orn](Decanoyl)DWKHNITQ-OH (Synthetic analogue of human GIP) [[CH3-(CH2)8-C(O)-A6c^7, Orn^34(N-C(O)-(CH2)8-CH3)]hGIP(7-42)-OH] | 164 |
| [Ac6c]SDYSIAMDKIHQQDFVNWLLAQKC(Hsu)KKNDWKHNITQ-OH (Synthetic analogue of human GIP) [[A6c^7, Cys(Hsu)^31]hGIP(7-42)-OH] | 772 |
| Ac-[Ac6c]SDYSIAMDKIHQQDFVNWLLAQK[2Nal]KKNDWKHNITQ-OH (Synthetic analogue of human GIP) [(Ac-A6c^7, 2Nal^31)hGIP(7-42)-OH] | 194 |
| Ac-[Ac6c]SDYSIAMDKIHQQDFVNWLLAQK[d2Nal]KKNDWKHNITQ-OH (X stands for the non-natural residues) [(Ac-A6c^7, D-2Nal^31)hGIP(7-42)-OH] | 159 |
| B2 | 546 |
| B3 | 7.92 |

| Binder | Ki [nM] |
| --- | --- |
| B4 | 115 |
| B5 | 48.3 |
| Ac-F[Ac6c]SDYSIAMDKIHQQDFVNWLLAQKC(Psu″)KKNDWKHNITQ-OH (Synthetic analogue of human GIP) [[Ac-Phe^6, A6c^7, Cys(Psu)^31]hGIP(6-42)-OH] | 574 |
| F[Ac6c]SDYSIAMDKIHQQDFVNWLLAQKC(Psu(3))KKNDWKHNITQ-OH (Synthetic analogue of human GIP) [[A6c^7, Cys(Psu)^31]hGIP(6-42)-OH] | 277 |
| FXSDYSIAMDKIHQQDFVNWLLAQK (N-terminal acetyl (Ac) on Phe 6; A6c at 7; hGIP numbering; C-terminal amide, Synthetic analogue of human GIP) [(Ac-Phe^6, A6c^7)hGIP(6-30)-NH2] | 68.5 |
| B6 | 77.5 |
| FXSDYSIAMDKIHQQDFVNWLLAQKC (A6c at 7; Cys(Psu) at 31; hGIP numbering; C-terminal amide, Synthetic analogue of human GIP) [[A6c^7, Cys(Psu)^31]hGIP(6-31)-NH2] | 101 |
| B7 | 734 |
| FXSDYSIAXDKIHQQDFVNWLLAQK (A6c at 7; Nle at 14; hGIP numbering; C-terminal amide, Synthetic analogue of human GIP) [(A6c^7, Nle^14)hGIP(6-30)-NH2] | 212 |
| FISDY[Aib]IA[Nle]DKIHQQDFVNWLLAQK-NH2 (Synthetic analogue of human GIP) [(Aib^11, Nle^14)hGIP(6-30)-NH2] | 170 |
| Ac-DYSIAMDKIHQQDFVNWLLAQKGK[Cys(Psu)]NDWKHNITQ-OH (reading uncertain, Synthetic analogue of human GIP) [[Ac-Asp^9, Cys(Psu)^33]hGIP(9-42)-OH] | 472 |
| Cyclohexanecarbonyl-SDYSIAMDKIHQQDFVNWLLAQK[Cys(Psu)]KKNDWKHNITQ-OH (reading uncertain, Synthetic analogue of human GIP) [[Chc-Ser^8, Cys(Psu)^31]hGIP(8-42)-OH] | 403 |
| Hexanoyl-SDYSIAMDKIHQQDFVNWLLAQK[Cys(Psu)]KKNDWKHNITQ-OH (reading uncertain, Synthetic analogue of human GIP) [[CH3-(CH2)4-C(O)-Ser^8, Cys(Psu)^31]hGIP(8-42)-OH] | 205 |
| B8 | 294 |
| XPGTFISDYSIAXDKIHQQDFVNWLLAQKGKKNDWKHNITQ (4Hppa at 2; Pro at 3; Nle at 14; hGIP numbering; C-terminal free acid, Synthetic analogue of human GIP) [(4Hppa^2, Pro^3, Nle^14)hGIP(2-42)-OH] | 800 |
| XEGTFISDYSIAXDKIHQQDFVNWLLAQKGKKNDWKHNITQ (4Hppa at 2; A6c at 14; hGIP numbering; C-terminal free acid, Synthetic analogue of human GIP) [(4Hppa^2, A6c^14)hGIP(2-42)-OH] | 50.4 |
| XEGTFISDYSIXMDKIHQQDFVNWLLAQKGKKNDWKHNITQ (4Hppa at 2; Aib at 13; hGIP numbering; C-terminal free acid, Synthetic analogue of human GIP) [(4Hppa^2, Aib^13)hGIP(2-42)-OH)] | 12.9 |
| XEGTFISDYXIAMDKIHQQDFVNWLLAQKGKKNDWKHNITQ (4Hppa at 2; A6c at 11; hGIP numbering; C-terminal free acid, Synthetic analogue of human GIP) [(4Hppa^2, A6c^11)hGIP(2-42)-OH] | 91.8 |
